We go through 26 molecules from patent US20260193377A1 (FULL LIFE TECHNOLOGIES HK, published 2026).

Substitutions are numbered along the chain they refer to.

Test [1] has as its target T1, Human GUCY2C (captured on anti-human Fc capturing antibody, SPR) (human).
T1 construct: also called human GCC; guanylyl cyclase C
The test can be described thus: SPR (Biacore T200), human GUCY2C captured via anti-human Fc, sdAb as analyte, 1:1 fit. Here is the method: Anti-GCC sdAbs were diluted with 1×HBS-EP buffer. Human GUCY2C was captured on anti-human Fc capturing Ab-immobilized sCM5 chip. Then anti-GCC sdAb samples were injected with a flow rate of 10 μl/min for 180 sec, followed by dissociation for 800 sec. The binding curves were locally fitted with Biacore® T200 analysis software (BIAevaluation) using a 1:1 Langmuir binding model.

For test [2], the target named is T2, GCC expressed on T84 cells (UniProt P25092 24-1073, limits assumed).
T2 construct: whole, on cells; also called guanylyl cyclase C; GUCY2C
T2 sequence (P25092 24-1073 limits assumed): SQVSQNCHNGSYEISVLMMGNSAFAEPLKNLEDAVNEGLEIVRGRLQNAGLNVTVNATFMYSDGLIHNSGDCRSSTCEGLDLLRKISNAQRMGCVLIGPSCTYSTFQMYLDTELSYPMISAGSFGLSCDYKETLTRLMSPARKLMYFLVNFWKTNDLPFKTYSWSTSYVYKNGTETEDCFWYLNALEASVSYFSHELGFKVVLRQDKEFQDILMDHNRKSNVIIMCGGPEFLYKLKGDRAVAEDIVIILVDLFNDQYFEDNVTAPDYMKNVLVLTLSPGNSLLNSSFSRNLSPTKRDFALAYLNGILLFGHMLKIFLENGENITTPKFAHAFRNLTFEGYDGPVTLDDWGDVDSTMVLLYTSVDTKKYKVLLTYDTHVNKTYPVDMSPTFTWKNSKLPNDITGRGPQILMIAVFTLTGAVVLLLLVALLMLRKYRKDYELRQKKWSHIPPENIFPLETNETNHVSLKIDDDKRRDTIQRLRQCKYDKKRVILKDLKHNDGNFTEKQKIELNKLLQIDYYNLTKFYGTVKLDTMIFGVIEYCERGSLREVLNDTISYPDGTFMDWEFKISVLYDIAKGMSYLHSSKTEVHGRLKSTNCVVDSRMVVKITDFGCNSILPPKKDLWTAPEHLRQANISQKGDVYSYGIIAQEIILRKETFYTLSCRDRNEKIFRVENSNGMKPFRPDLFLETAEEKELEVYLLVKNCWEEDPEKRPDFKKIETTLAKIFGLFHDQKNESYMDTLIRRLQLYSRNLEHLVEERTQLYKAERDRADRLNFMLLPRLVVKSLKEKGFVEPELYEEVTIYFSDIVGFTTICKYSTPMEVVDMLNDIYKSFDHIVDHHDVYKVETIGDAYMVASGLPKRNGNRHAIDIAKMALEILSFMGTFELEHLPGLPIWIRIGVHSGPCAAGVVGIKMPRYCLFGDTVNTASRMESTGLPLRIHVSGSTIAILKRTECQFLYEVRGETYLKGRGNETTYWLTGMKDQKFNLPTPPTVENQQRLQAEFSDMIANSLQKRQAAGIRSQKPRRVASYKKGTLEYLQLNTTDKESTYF
The test can be described thus: flow cytometry on T84 cells expressing GCC, 300 nm [sic], PE-anti human Fc secondary; Blank 30.7. On the procedure:
T84 cells expressing GCC were used to evaluate the binding affinity of the anti-GCC sdAbs. Briefly, 50 μL T84 cells at density of 3×10⁶ cells/mL were incubated with 50 μL anti-GCC sdAbs at 4° C. for 2 hours. After incubation, the cells were washed three times with 400 μL FACS buffer, resuspended with PE-anti human Fc 2nd antibody (eBioscience 12-4998-82, 1:1000 dilution) and incubated at 4° C. for 60 min. Then the cells were collected and subject to FACS analysis.

For test [3], the target named is T1, Human GUCY2C (captured on anti-human Fc …). Nature of the test: SPR (Biacore T200), human GUCY2C captured via anti-human Fc, humanized sdAb as analyte, 1:1 fit. On the procedure: Exemplary humanized anti-GCC sdAbs of the present application were diluted with 1×HBS-EP buffer. Human GUCY2C was captured on anti-human Fc capturing Ab-immobilized sCM5 chip. Then the humanized anti-GCC sdAb samples were injected with a flow rate of 10 μl/min for 180 sec, followed by dissociation for 800 sec. The binding curves were locally fitted with Biacore® T200 analysis software (BIAevaluation) using a 1:1 Langmuir binding model.

T1 sequence (P25092 24-430): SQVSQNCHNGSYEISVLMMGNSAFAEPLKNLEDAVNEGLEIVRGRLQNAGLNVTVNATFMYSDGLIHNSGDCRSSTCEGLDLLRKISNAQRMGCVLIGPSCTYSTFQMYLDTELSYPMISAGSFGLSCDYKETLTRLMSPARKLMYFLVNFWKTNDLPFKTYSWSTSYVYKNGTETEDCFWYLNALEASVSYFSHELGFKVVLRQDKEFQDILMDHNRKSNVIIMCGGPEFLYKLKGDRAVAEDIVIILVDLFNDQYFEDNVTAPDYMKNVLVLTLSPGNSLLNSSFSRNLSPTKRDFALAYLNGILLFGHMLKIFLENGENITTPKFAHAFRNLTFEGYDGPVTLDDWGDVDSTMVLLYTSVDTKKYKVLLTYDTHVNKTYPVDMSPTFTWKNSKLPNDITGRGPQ

B1: anti-GCC single domain antibody SEQ ID NO. 7 (VHH)
VHH: QVQLVESGGGLVQPGGSLRLSCAASGSRFMTSSMGWYRQTPGKQREWVATATSSDSTLYADAVKGRFTISRDNAKNTVYLQMNSLKPQDTAVYYCFTTPPTFWGHGTQVTVSS
notes: Alpaca-derived sdAb
In test [1], B1 gave a dissociation constant (Kd) of 2.53 nM, a koff of 0.000395 s⁻¹ and a kon of 156000 M⁻¹ s⁻¹. For the same molecule, the “Geometric mean MFI” value in test [2] is 268.

B2: humanized anti-GCC single domain antibody SEQ ID NO. 110 (VHH)
VHH: B1 VHH with Q1E, K43N, Q44G, A62S, T77S, V78L, K86R, P87A, Q88E
notes: 7
Regarding B2, in test [3], the Kd is 54.6 nM, the off-rate constant (koff) was 0.01 s⁻¹ and the kon came out at 183000 M⁻¹ s⁻¹.

B3: humanized anti-GCC single domain antibody SEQ ID NO. 109 (VHH)
VHH: B1 VHH with Q1E, K43N, A62S, T77S, V78L, K86R, P87A, Q88E
notes: 7
In test [3], B3 came in with a Kd of 11.8 nM, a koff of 0.00213 s⁻¹ and a kon of 181000 M⁻¹ s⁻¹.

B4: humanized anti-GCC single domain antibody SEQ ID NO. 107 (VHH)
VHH: B1 VHH with Q1E, A62S, T77S, V78L, K86R, P87A, Q88E
notes: 7
Regarding B4, in test [3], binding was put at a Kd of 2.03 nM, the koff stood at 0.000531 s⁻¹ and the kon came out at 261000 M⁻¹ s⁻¹.

B5: humanized anti-GCC single domain antibody SEQ ID NO. 108 (VHH)
VHH: B1 VHH with Q1E, A62S, K75R, T77S, V78L, K86R, P87A, Q88E
notes: 7
For B5, in test [3], binding was put at a Kd of 2.37 nM, the koff worked out at 0.000546 s⁻¹ and the kon turned out to be 231000 M⁻¹ s⁻¹.

B6: anti-GCC single domain antibody SEQ ID NO. 10 (VHH)
VHH: AVQLVESGGGMVQPGGSLRLSCAASGFTFGAYDMTWVRQAPGKGAEWVSAINSGGDRTYYTDSVKGRFTISRDNAKNTLYLQMNSLKPADTAKYYCGTKIPQFLRGQGTQVTVSS
notes: Alpaca-derived sdAb
Turning to B6, in test [1], the dissociation constant (Kd) was found to be 0.427 nM, the koff was found to be 0.000702 s⁻¹ and the kon was determined as 1.64e+06 M⁻¹ s⁻¹.

B7: anti-GCC single domain antibody SEQ ID NO. 1 (VHH)
VHH: QVQLVESGGGLVQAGGSLRLSCTGSARPFSNYGMGWFRQAPGKEREFVAAISGGGVYTDFADAVKGRFTISRDNAKNTVYLQMNSLKPEDTAVYYCARARTARVVSRRHEYDYWGQGTQVTVSS
notes: Alpaca-derived sdAb
In test [1], B7 gave a Kd of 0.56 nM, a koff of 0.0002 s⁻¹ and a kon of 357000 M⁻¹ s⁻¹. Further, the “Geometric mean MFI” value in test [2] was 790.

B8: humanized anti-GCC single domain antibody SEQ ID NO. 86 (VHH)
VHH: B7 VHH with Q1E, A14P, K43N, A63S, A75S, V79L, K87R, P88A
notes: 1
As to B8, in test [3], the Kd was 0.235 nM, the off-rate (koff) amounted to 0.000181 s⁻¹ and the kon was 768000 M⁻¹ s⁻¹.

B9: anti-GCC single domain antibody SEQ ID NO. 3 (VHH)
VHH: B7 VHH with L4F, G24A, A26G, R27G, P28I, A63S, N74R, V104L, V105T, E110D
notes: Alpaca-derived sdAb
In test [1], B9 had a Kd of 0.218 nM, a koff of 0.00018 s⁻¹ and a kon of 827000 M⁻¹ s⁻¹. Moreover, the “Geometric mean MFI” value in test [2] stood at 910.

B10: anti-GCC single domain antibody SEQ ID NO. 2 (VHH)
VHH: B7 VHH with G24A, A26G, R27G, P28T, S30V, T58R, A63S, V93L, A102P, S106N
notes: Alpaca-derived sdAb
In test [1], B10 gave a Kd of 0.0759 nM, a dissociation rate constant (koff) of 4.67e-05 s⁻¹ and a kon of 615000 M⁻¹ s⁻¹. Moreover, in test [2], the “Geometric mean MFI” value was 721.

B11: anti-GCC single domain antibody SEQ ID NO. 6 (VHH)
VHH: QVQVVESGGGLVQAGGSLRLSCAASGRAFSSYAMGWFRQAPGKQRELVAVITSGGSTNYADSVKGRFTISRDNAKNTVYLQMNSLKPEDTAVYYCAAGTGYGGGFLIGYDYWGQGTQVTVSS
notes: Alpaca-derived sdAb
In test [1], B11 returned a Kd of 0.753 nM, a koff of 0.000172 s⁻¹ and a kon of 228000 M⁻¹ s⁻¹. Further, in test [2], the “Geometric mean MFI” value was determined as 298.

B12: anti-GCC single domain antibody SEQ ID NO. 4 (VHH)
VHH: QSQLVESGGGLVQPGGSLRLSCAASGSTLDHYATAWFRRAPGKEREGISYISSGGGSTYYVDSVKGRFTISRDNAKRTVYLQMNSLKPEDTAVYFCASKRRFNTGWSEPSDYNVWGQGTQVTVTS
notes: Alpaca-derived sdAb
In test [1], B12 showed a Kd of 0.414 nM, an off-rate (koff) of 0.000149 s⁻¹ and a kon of 359000 M⁻¹ s⁻¹.

B13: humanized anti-GCC single domain antibody SEQ ID NO. 96 (VHH)
VHH: B12 VHH with V61A, A75S, R77N, V79L, K87R, P88A, F95Y
notes: 4
In test [3], B13 displayed a Kd of 1.74 nM, a koff of 0.000143 s⁻¹ and a kon of 82600 M⁻¹ s⁻¹.

B14: humanized anti-GCC single domain antibody SEQ ID NO. 97 (VHH)
VHH: B12 VHH with A75S, R77N, V79L, K87R, P88A
notes: 4
In the case of B14, in test [3], the Kd was determined as 3.68 nM, the koff was 0.000226 s⁻¹ and the kon came out at 61300 M⁻¹ s⁻¹.

B15: humanized anti-GCC single domain antibody SEQ ID NO. 116 (VHH)
VHH: QVQLVESGGGLVKPGGSLRLSCAASGETLSNYNIGWFRQAPGKEREGVSCISQIGFTNYADSVKGRFTISRDNAKNSLYLQMNSLRAEDTAVYYCAVTGGRWASCSFLPLRQDFESWGQGTLVTVSS
notes: 9
In test [3], B15 displayed a Kd of 15.4 nM, a koff of 0.0636 s⁻¹ and a kon of 4.14e+06 M⁻¹ s⁻¹.

B16: anti-GCC single domain antibody SEQ ID NO. 5 (VHH)
VHH: AVQLVESGGGLVQPGGSLRLSCAASGSTISINVMGWYRQAPGKQRDLVAAISSVGSTYYADSVKGRFTISRDNAKNTVYLQMNSLKPEDTAVYYCNAKSLISDYWGQGTQVTVSS
notes: Alpaca-derived sdAb
On to B16, for which, in test [1], the affinity, expressed as Kd, was 0.431 nM; the koff worked out at 0.000142 s⁻¹; the kon is 330000 M⁻¹ s⁻¹. Besides, the “Geometric mean MFI” value in test [2] came to 371.

B17: humanized anti-GCC single domain antibody SEQ ID NO. 101 (VHH)
VHH: B16 VHH with K64A, A74S, K75R, V78L, K86R, P87A
notes: 5
With B17, in test [3], the Kd was 0.574 nM, the koff worked out at 0.000218 s⁻¹ and the kon was 380000 M⁻¹ s⁻¹.

B18: humanized anti-GCC single domain antibody SEQ ID NO. 100 (VHH)
VHH: B16 VHH with A74S, V78L, K86R, P87A
notes: 5
Take B18: in test [3], the Kd amounted to 0.324 nM, the koff was determined as 0.000191 s⁻¹ and the association rate constant (kon) was 591000 M⁻¹ s⁻¹.

B19: humanized anti-GCC single domain antibody SEQ ID NO. 83 (VHH)
VHH: EVQLVESGGGLVQPGGSLRLSCAASARPFSNYGMGWFRQAPGKEREFVAAISGGGVYTYYADSVKGRFTISRDNSKNTLYLQMNSLRAEDTAVYYCARARTARVVSRRHEYDYWGQGTQVTVSS
notes: 1
Turning to B19, in test [3], the affinity, expressed as Kd, was 0.115 nM; the koff is 0.000177 s⁻¹; the kon came out at 1.53e+06 M⁻¹ s⁻¹.

B20: humanized anti-GCC single domain antibody SEQ ID NO. 92 (VHH)
VHH: B19 VHH with A26G, R27G, P28I, V104L, V105T, E110D
notes: 3
Regarding B20, in test [3], the affinity, expressed as Kd, was 0.759 nM; the off-rate (koff) was determined as 0.000788 s⁻¹; the kon amounted to 1.04e+06 M⁻¹ s⁻¹.

B21: humanized anti-GCC single domain antibody SEQ ID NO. 85 (VHH)
VHH: B19 VHH with K76R
notes: 1
With B21, in test [3], the Kd was determined as 0.187 nM, the koff was determined as 0.000309 s⁻¹ and the kon is 1.66e+06 M⁻¹ s⁻¹.

B22: humanized anti-GCC single domain antibody SEQ ID NO. 88 (VHH)
VHH: B19 VHH with A26G, R27G, P28T, S30V, T58R, A102P, S106N
notes: 2
B22: in test [3], the Kd worked out at 0.155 nM, the koff is 0.000337 s⁻¹ and the kon is 2.17e+06 M⁻¹ s⁻¹.

B23: humanized anti-GCC single domain antibody SEQ ID NO. 94 (VHH)
VHH: B19 VHH with A26G, R27G, P28I, K76R, V104L, V105T, E110D
notes: 3
Turning to B23, in test [3], the Kd came out at 0.425 nM, the koff is 0.000633 s⁻¹ and the kon came to 1.49e+06 M⁻¹ s⁻¹.

B24: humanized anti-GCC single domain antibody SEQ ID NO. 112 (VHH)
VHH: EVQLVESGGGLVQPGGSLRLSCAASGFTFSHYAMSWVRQAPGKALEWVSDISSGGGITYYADSVKGRFTISRDNSKNTLYLQMNSLRAEDTAVYYCAKASAIGYLAYWMRNPVEYDTRGQGTLVTVSS
notes: 8
In test [3], B24 had a Kd of 118 nM, a koff of 0.00462 s⁻¹ and a kon of 39100 M⁻¹ s⁻¹.

B25: humanized anti-GCC single domain antibody SEQ ID NO. 114 (VHH)
VHH: B24 VHH with E1Q, K65A, K76R
notes: 8
Consider B25, for which, in test [3], the Kd was 195 nM, the koff stood at 0.0044 s⁻¹ and the kon worked out at 22600 M⁻¹ s⁻¹.

B26: humanized anti-GCC single domain antibody SEQ ID NO. 113 (VHH)
VHH: B24 VHH with A23G, Y59K
notes: 8
In the case of B26, in test [3], the Kd amounted to 1.29 nM, the koff amounted to 0.00277 s⁻¹ and the kon came to 2.15e+06 M⁻¹ s⁻¹.
